Results reported in US12385058B2, “Herbicide tolerance protein, encoding gene thereof and use thereof” (Beijing Dabeinong Biotechnology Co., Ltd., priority 2018, dated 2025).

B1: ALT02M1-02: nucleotide sequence SEQ ID NO: 26 encoding ALT02M1, based on maize codon usage bias (nucleic acid)
DNA: ATGGAGACTGATAACGTGGAGCTGGCGCAGAGCAAGAGGAAGGTGGTTCTGGCTGAGCAGGGGTCGTTCTACATTGGGGGGCGGACTGTGACCGGGCCCGGCAAGTTCGACCCATCGAAGCCTGTCATTCCGTACTCTAACGAGGGCGCTACGTTCTACATCAACCAGATGTACGTGAATTTCCAGGCTCCCGTCCGCCCAAGGGGCCTCCCACTGGTGTTCTGGCACGGCGGGGGCCTGACAGGCCATATCTGGGAGTCCACTCCAGATGGCCGCCCAGGGTTCCAGACACTCTTCGTTCAGGACAGGCACACAGTGTACACTATTGATCAGCCAGGGAGGGGCAGGGGGAACATCCCTACCTTCAATGGCCCATTCGGGCAGCTGGAGGAGGAGTCCATCGTGAACACCGTCACGGCGAATTCCAGCAAGGAGGGGGCTTGGGTCAGGGACCGGCTCGGCCCGGCCCCAGGGCAGTTCTTCGAGAACTCTCAGTTCCCCCGGGGCTACGAGGATAATTACTTCAAGGAGATGGGCTTCTCACCATCCATCTCGTCTGACGAGATTGTCGATGCCGTGGTCAAGCTCGTTACCCACATCGGCCCTTGCGTTCTGGTGACGCATAGCGCTTCGGGCGTCCTCGGGATGAGGGTTGCTACACATGCGAAGAACGTTCGCGGCATCGTGGCTTACGAGCCGGCCACTTCCATTTTCCCCAAGGGCAAGGTGCCAGAGATCCCACCACTGGCCGACAAGAAGTCACAGATCTTCCCACCTTTCGAGATTCAGGAGTCCTACTTCAAGAAGCTCGCTAAGATCCCCATTCAGTTCGTGTTCGGCGACAACATTCCTAAGAATCCGAAGAGCGCGTACTGGTTCCTGGATTGGTGGCGCGTCACGCGCTACGCGCACTCTCTCTCACTGGAGGCTATCAACAAGCTCGGGGGCCAGGCCTCGCTCCTGGACCTCCCTACCGCTGGCCTGAGGGGGAACACCCATTTCCCGTTCACGGATCGGAACAATGTCCAGGTTGCGTCCCTCCTGAGCGATTTCCTCGGCAAGCACGGGCTGGATCAGAATGAGTCTAAGCTCGCTGCGGCGCTGGAGTGA
modifications: the ALT02M1-02 nucleotide sequence encoding the amino acid sequence corresponding to the herbicide tolerant protein ALT02M1 and based on the maize codon usage bias
B2: ALT02M2-02: nucleotide sequence SEQ ID NO: 30 encoding ALT02M2, based on maize codon usage bias (nucleic acid)
DNA: ATGGAGACTGATAACGTGGAGCTGGCGCAGAGCAAGAGGAAGGTGGTTCTGGCTGAGCAGGGGTCGTTCTACATTGGGGGGCGGACTGTGACCGGGCCCGGCAAGTTCGACCCATCGAAGCCTGTCATTCCGTACTCTAACGAGGGCGCTACGTTCTACATCAACCAGATGTACGTGAATTTCCAGGCTCCCGTCCGCCCAAGGGGCCTCCCACTGGTGTTCTGGCACGGCGGGGGCCTGACAGGCCATATCTGGGAGTCCACTCCAGATGGCCGCCCAGGGTTCCAGACACTCTTCGTTCAGGACAGGCACACAGTGTACACTATTGATCAGCCAGGGAGGGGCAGGGGGAACATCCCTACCTTCAATGGCCCATTCGGGCAGCTGGAGGAGGAGTCCATCGTGAACACCGTCACGGGCAATGTGAGCAAGGAGGGGGCTTGGGTCAGGGACCGGCTCGGCCCGGCCCCAGGGCAGTTCTTCGAGAACTCTCAGTTCCCCCGGGGCTACGAGGATAATTACTTCAAGGAGATGGGCTTCTCACCATCCATCTCGTCTGACGAGATTGTCGATGCCGTGGTCAAGCTCGTTACCCACATCGGCCCTTGCGTTCTGGTGACGCATAGCGCTTCGGGCGTCCTCGGGATGAGGGTTGCTACACATGCGAAGAACGTTCGCGGCATCGTGGCTTACGAGCCGGCCACTTCCATTTTCCCCAAGGGCAAGGTGCCAGAGATCCCACCACTGGCCGACAAGAAGTCACAGATCTTCCCACCTTTCGAGATTCAGGAGTCCTACTTCAAGAAGCTCGCTAAGATCCCCATTCAGTTCGTGTTCGGCGACAACATTCCTAAGAATCCGAAGAGCGCGTACTGGTTCCTGGATTGGTGGCGCGTCACGCGCTACGCGCACTCTCTCTCACTGGAGGCTATCAACAAGCTCGGGGGCCAGGCCTCGCTCCTGGACCTCCCTACCGCTGGCCTGAGGGGGAACACCCATTTCCCGTTCACGGATCGGAACAATGTCCAGGTTGCGTCCCTCCTGAGCGATTTCCTCGGCAAGCACGGGCTGGATCAGAATGAGTCTAAGCTCGCTGCGGCGCTGGAGTGA
modifications: the ALT02M2-02 nucleotide sequence encoding the amino acid sequence corresponding to the herbicide tolerant protein ALT02M2 and based on the maize codon usage bias
B3: ALT02M3-02: nucleotide sequence SEQ ID NO: 34 encoding ALT02M3, based on maize codon usage bias (nucleic acid)
DNA: ATGGAGACTGATAACGTGGAGCTGGCGCAGAGCAAGAGGAAGGTGGTTCTGGCTGAGCAGGGGTCGTTCTACATTGGGGGGCGGACTGTGACCGGGCCCGGCAAGTTCGACCCATCGAAGCCTGTCATTCGGGCGTCTAACGAGGGCGCTACGTTCTACATCAACCAGATGTACGTGAATTTCCAGGCTCCCGTCCGCCCAAGGGGCCTCCCACTGGTGTTCTGGCACGGCGGGGGCCTGACAGGCCATATCTGGGAGTCCACTCCAGATGGCCGCCCAGGGTTCCAGACACTCTTCGTTCAGGACAGGCACACAGTGTACACTATTGATCAGCCAGGGAGGGGCAGGGGGAACATCCCTACCTTCAATGGCCCATTCGGGCAGCTGGAGGAGGAGTCCATCGTGAACACCGTCACGGCGAATGTGAGCAAGGAGCGGGCTTGGGTCAGGGACCGGCTCGGCCCGGCCCCAGGGCAGTTCTTCGAGAACTCTCAGTTCCCCCGGGGCTACGAGGATAATTACTTCAAGGAGATGGGCTTCTCACCATCCATCTCGTCTGACGAGATTGTCGATGCCGTGGTCAAGCTCGTTACCCACATCGGCCCTTGCGTTCTGGTGACGCATAGCGCTTCGGGCGTCCTCGGGATGAGGGTTGCTACACATGCGAAGAACGTTCGCGGCATCGTGGCTTACGAGCCGGCCACTTCCATTTTCCCCAAGGGCAAGGTGCCAGAGATCCCACCACTGGCCGACAAGAAGTCACAGATCTTCCCACCTTTCGAGATTCAGGAGTCCTACTTCAAGAAGCTCGCTAAGATCCCCATTCAGTTCGTGTTCGGCGACAACATTCCTAAGAATCCGAAGAGCGCGTACTGGTTCCTGGATTGGTGGCGCGTCACGCGCTACGCGCACTCTCTCTCACTGGAGGCTATCAACAAGCTCGGGGGCCAGGCCTCGCTCCTGGACCTCCCTACCGCTGGCCTGAGGGGGAACACCCATTTCCCGTTCACGGATCGGAACAATGTCCAGGTTGCGTCCCTCCTGAGCGATTTCCTCGGCAAGCACGGGCTGGATCAGAATGAGTCTAAGCTCGCTGCGGCGCTGGAGTGA
modifications: the ALT02M3-02 nucleotide sequence encoding the amino acid sequence corresponding to the herbicide tolerant protein ALT02M3 and based on the maize codon usage bias
B4: ALT02-02: nucleotide sequence SEQ ID NO: 22 encoding ALT02, based on maize codon usage bias (nucleic acid)
DNA: ATGGAGACTGATAACGTGGAGCTGGCGCAGAGCAAGAGGAAGGTGGTTCTGGCTGAGCAGGGGTCGTTCTACATTGGGGGGCGGACTGTGACCGGGCCCGGCAAGTTCGACCCATCGAAGCCTGTCATTCCGTACTCTAACGAGGGCGCTACGTTCTACATCAACCAGATGTACGTGAATTTCCAGGCTCCCGTCCGCCCAAGGGGCCTCCCACTGGTGTTCTGGCACGGCGGGGGCCTGACAGGCCATATCTGGGAGTCCACTCCAGATGGCCGCCCAGGGTTCCAGACACTCTTCGTTCAGGACAGGCACACAGTGTACACTATTGATCAGCCAGGGAGGGGCAGGGGGAACATCCCTACCTTCAATGGCCCATTCGGGCAGCTGGAGGAGGAGTCCATCGTGAACACCGTCACGGGCAATTCCAGCAAGGAGGGGGCTTGGGTCAGGGACCGGCTCGGCCCGGCCCCAGGGCAGTTCTTCGAGAACTCTCAGTTCCCCCGGGGCTACGAGGATAATTACTTCAAGGAGATGGGCTTCTCACCATCCATCTCGTCTGACGAGATTGTCGATGCCGTGGTCAAGCTCGTTACCCACATCGGCCCTTGCGTTCTGGTGACGCATAGCGCTTCGGGCGTCCTCGGGATGAGGGTTGCTACACATGCGAAGAACGTTCGCGGCATCGTGGCTTACGAGCCGGCCACTTCCATTTTCCCCAAGGGCAAGGTGCCAGAGATCCCACCACTGGCCGACAAGAAGTCACAGATCTTCCCACCTTTCGAGATTCAGGAGTCCTACTTCAAGAAGCTCGCTAAGATCCCCATTCAGTTCGTGTTCGGCGACAACATTCCTAAGAATCCGAAGAGCGCGTACTGGTTCCTGGATTGGTGGCGCGTCACGCGCTACGCGCACTCTCTCTCACTGGAGGCTATCAACAAGCTCGGGGGCCAGGCCTCGCTCCTGGACCTCCCTACCGCTGGCCTGAGGGGGAACACCCATTTCCCGTTCACGGATCGGAACAATGTCCAGGTTGCGTCCCTCCTGAGCGATTTCCTCGGCAAGCACGGGCTGGATCAGAATGAGTCTAAGCTCGCTGCGGCGCTGGAGTGA
modifications: the ALT02-02 nucleotide sequence encoding the amino acid sequence corresponding to the herbicide tolerant protein ALT02 and based on the maize codon usage bias

These molecules were tested on maize plants (assay: Herbicide tolerance of transgenic maize T1 plants (spraying, damage degree)). Details: sprayed with tribenuron-methyl 144 g ai/ha, eight-fold field concentration.
Type: in vivo
Procedure: The degree of damage caused by the herbicide was measured for each plant according to the plant growth status 3 days after spraying (3 DAT), 7 days after spraying (7 DAT), 14 days after spraying (14 DAT) and 21 days after spraying (21 DAT): a growth status equivalent to that of the untreated plants is defined as having a damage degree of 0%; the case where leaves are locally chlorotic and yellow but the normal plant growth is substantially not affected is defined as having a damage degree of 50%; and the case where the whole plant is purple and dying is defined as having a damage degree of 100%. The maize plants into which the ALT02M1-02 nucleotide sequence was introduced were of three strains in total (S15, S16 and S17), the maize plants into which the ALT02M2-02 nucleotide sequence was introduced were of three strains in total (S18, S19 and S20), the maize plants into which the ALT02M3-02 nucleotide sequence was introduced were of three strains in total (S21, S22 and S23), the maize plants into which the ALT02-02 nucleotide sequence was introduced were of three strains in total (S24, S25 and S26), the control maize plants were of two strains in total (S27 and S28), and the wild-type maize plants were of one strain in total (CK2); and 10-15 plants were selected from each strain and tested.
In the case of B1, the “herbicide tolerance compared with maize plants into which ALT02-02 was introduced” value is reported as “significantly increased tolerance to benzenesulfonic acid” and the “herbicide tolerance imparted to transgenic maize plants” value (“herbicide tolerance imparted” below) is reported as “impart transgenic maize plants with the tolerance to benzenesulfonic acid”. In the case of B2, the “herbicide tolerance compared with maize plants into which ALT02-02 was introduced” value is reported as “significantly increased tolerance to benzenesulfonic acid” and the “herbicide tolerance imparted” value is reported as “impart transgenic maize plants with the tolerance to benzenesulfonic acid”. B3 was tested, and the “herbicide tolerance compared with maize plants into which ALT02-02 was introduced” value was “significantly increased tolerance to benzenesulfonic acid” and the “herbicide tolerance imparted” value was “impart transgenic maize plants with the tolerance to benzenesulfonic acid”. In the case of B4, the “herbicide tolerance imparted” value is reported as “impart transgenic maize plants with the tolerance to benzenesulfonic acid”.
